From article PMC7864929, “Crystal structure of the human PRPK–TPRKB complex” (Communications Biology, 2021) come the findings set out here.

This assay addresses T1, MBP-tagged OSGEP (human, UniProt Q9NPF4 1-335).
T1 construct: human OSGEP (gene bought from DNAsu); Cloned into a modified pMal-c2X vector; also called MBP-OSGEP; Kae1 (yeast ortholog); source: E. coli BL21-CodonPlus (DE3), purified (amylose resin, HiTrap Q anion exchange)
T1 sequence (looked up): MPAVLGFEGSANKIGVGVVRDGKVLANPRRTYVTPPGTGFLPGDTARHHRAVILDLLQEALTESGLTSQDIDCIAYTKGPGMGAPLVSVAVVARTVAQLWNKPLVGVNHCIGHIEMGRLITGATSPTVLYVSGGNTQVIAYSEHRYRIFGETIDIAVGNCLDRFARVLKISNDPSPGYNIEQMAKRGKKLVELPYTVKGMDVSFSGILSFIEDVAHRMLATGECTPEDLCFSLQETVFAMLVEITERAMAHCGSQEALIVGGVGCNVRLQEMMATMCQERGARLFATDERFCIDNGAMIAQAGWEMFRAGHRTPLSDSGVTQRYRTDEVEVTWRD
The assay is described as follows: pull-down; GST-tagged PRPK proteins captured on 20 µl glutathione Sepharose 4B from BL21 lysates, then incubated with about 15 µg purified His-TPRKB or MBP-OSGEP; 20 mM Tris-HCl pH 8.0, 300 mM NaCl, 0.1% Nonidet P-40, 5% glycerol, 2 mM DTT, 0.4 mM PMSF; 2 h at 4°C; 4 washes; Western blot with anti-His or anti-MBP. Conditions: both partners purified. For orientation: A western blot detects proteins with antibodies after separation by electrophoresis.

B1: GST-tagged PRPK S250A (enzyme, human, UniProt Q96S44 1-253, looked up)
chain: MAAARATTPADGEEPAPEAEALAAARERSSRFLSGLELVKQGAEARVFRGRFQGRAAVIKHRFPKGYRHPALEARLGRRRTVQEARALLRCRRAGISAPVVFFVDYASNCLYMEEIEGSVTVRDYIQSTMETEKTPQGLSNLAKTIGQVLARMHDEDLIHGDLTTSNMLLKPPLEQLNIVLIDFGLSFISALPEDKGVDLYVLEKAFLSTHPNTETVFEAFLKSYSTSSKKARPVLKKLDEVRLRGRKRAMVG
notes: human p53-related protein kinase (PRPK, TP53RK) with S250A; source: E. coli BL21 lysate, captured on glutathione Sepharose 4B resin
Turning to B1, the binding result is on record as “binds”.

B2: GST-tagged PRPK (wild type) (enzyme, human, UniProt Q96S44 1-253, looked up)
chain: MAAARATTPADGEEPAPEAEALAAARERSSRFLSGLELVKQGAEARVFRGRFQGRAAVIKHRFPKGYRHPALEARLGRRRTVQEARALLRCRRAGISAPVVFFVDYASNCLYMEEIEGSVTVRDYIQSTMETEKTPQGLSNLAKTIGQVLARMHDEDLIHGDLTTSNMLLKPPLEQLNIVLIDFGLSFISALPEDKGVDLYVLEKAFLSTHPNTETVFEAFLKSYSTSSKKARPVLKKLDEVRLRGRKRSMVG
notes: human p53-related protein kinase (PRPK, TP53RK); Cloned into pGEX-6p-1; Parent of the GST-PRPK mutants; also called GST-PRPK; TP53RK; source: E. coli BL21 lysate, captured on glutathione Sepharose 4B resin
Consider B2, for which the binding result is reported as “binds”.

B3: GST-tagged PRPK S250E (enzyme, human, UniProt Q96S44 1-253, looked up)
chain: MAAARATTPADGEEPAPEAEALAAARERSSRFLSGLELVKQGAEARVFRGRFQGRAAVIKHRFPKGYRHPALEARLGRRRTVQEARALLRCRRAGISAPVVFFVDYASNCLYMEEIEGSVTVRDYIQSTMETEKTPQGLSNLAKTIGQVLARMHDEDLIHGDLTTSNMLLKPPLEQLNIVLIDFGLSFISALPEDKGVDLYVLEKAFLSTHPNTETVFEAFLKSYSTSSKKARPVLKKLDEVRLRGRKREMVG
notes: human p53-related protein kinase (PRPK, TP53RK) with S250E; source: E. coli BL21 lysate, captured on glutathione Sepharose 4B resin
With B3, the binding result is “binds”.

B4: GST-tagged PRPK K205A (enzyme, human, UniProt Q96S44 1-253, looked up)
chain: MAAARATTPADGEEPAPEAEALAAARERSSRFLSGLELVKQGAEARVFRGRFQGRAAVIKHRFPKGYRHPALEARLGRRRTVQEARALLRCRRAGISAPVVFFVDYASNCLYMEEIEGSVTVRDYIQSTMETEKTPQGLSNLAKTIGQVLARMHDEDLIHGDLTTSNMLLKPPLEQLNIVLIDFGLSFISALPEDKGVDLYVLEAAFLSTHPNTETVFEAFLKSYSTSSKKARPVLKKLDEVRLRGRKRSMVG
notes: human p53-related protein kinase (PRPK, TP53RK) with K205A; source: E. coli BL21 lysate, captured on glutathione Sepharose 4B resin
With B4, the binding result is given as “binds”.

B5: GST-tagged PRPK K65A (enzyme, human, UniProt Q96S44 1-253, looked up)
chain: MAAARATTPADGEEPAPEAEALAAARERSSRFLSGLELVKQGAEARVFRGRFQGRAAVIKHRFPAGYRHPALEARLGRRRTVQEARALLRCRRAGISAPVVFFVDYASNCLYMEEIEGSVTVRDYIQSTMETEKTPQGLSNLAKTIGQVLARMHDEDLIHGDLTTSNMLLKPPLEQLNIVLIDFGLSFISALPEDKGVDLYVLEKAFLSTHPNTETVFEAFLKSYSTSSKKARPVLKKLDEVRLRGRKRSMVG
notes: human p53-related protein kinase (PRPK, TP53RK) with K65A; source: E. coli BL21 lysate, captured on glutathione Sepharose 4B resin
Take B5: the binding result is “binds”.

B6: GST-tagged PRPK R80A (enzyme, human, UniProt Q96S44 1-253, looked up)
chain: MAAARATTPADGEEPAPEAEALAAARERSSRFLSGLELVKQGAEARVFRGRFQGRAAVIKHRFPKGYRHPALEARLGRRATVQEARALLRCRRAGISAPVVFFVDYASNCLYMEEIEGSVTVRDYIQSTMETEKTPQGLSNLAKTIGQVLARMHDEDLIHGDLTTSNMLLKPPLEQLNIVLIDFGLSFISALPEDKGVDLYVLEKAFLSTHPNTETVFEAFLKSYSTSSKKARPVLKKLDEVRLRGRKRSMVG
notes: human p53-related protein kinase (PRPK, TP53RK) with R80A; source: E. coli BL21 lysate, captured on glutathione Sepharose 4B resin
As for B6, the binding result was “binds”.
